# Source: US20230071765A1, “COMPOSITIONS HAVING THIOREDOXIN ACTIVITY AND RELATED METHODS” (ORPRO THERAPEUTICS, INC., priority 2020, published 2023)
# B1: ORP100S (fully monocysteinic human thioredoxin-1, reduced form) (enzyme)
# chain: VKQIESKTAFQEALDAAGDKLVVVDFSATWCGPSKMIKPFFHSLSEKYSNVIFLEVDVDDSQDVASESEVKSMPTFQFFKKGQKVGEFSGANKEKLEATINELV
# B2: oxidized ORP100S treated with iodacetamide (IA) (enzyme)
# chain: B1 chain
# modifications: Cys32 oxidized / treated with iodoacetamide, as printed: 'oxidized ORP100S treated with iodacetamide (IA)'
# Target: human insulin (disulfide-bonded heterodimer) (human) (UniProt P01308)
# Assay: cell-based or functional assay
# Sequence of human insulin (disulfide-bonded heterodimer) (human) (P01308 90-110 limits assumed, chain 1 of 2): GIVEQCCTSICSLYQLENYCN
# Sequence of human insulin (disulfide-bonded heterodimer) (human) (P01308 25-54 limits assumed, chain 2 of 2): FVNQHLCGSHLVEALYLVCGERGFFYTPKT
Binder,Relative % insulin reduction (ORP100S Ox 0 : Red 100) (% relative to maximum),Relative % insulin reduction (ORP100S mixture Ox 25 : Red 75) (% relative to maximum),Relative % insulin reduction (ORP100S mixture Ox 50 : Red 50) (% relative to maximum),Relative % insulin reduction (ORP100S mixture Ox 75 : Red 25) (% relative to maximum),maximum insulin heterodimer reaction with fully reduced material (RP-HPLC insulin reduction assay) [%],Relative % insulin reduction (ORP100S Ox 100 : Red 0) (% relative to maximum)
B1,100,72,51,36,45,
B2,,,,,,8
